# Results: the Human Domainome abundance scans (Beltran et al. 2025)
# ± gives the uncertainty stated by the source.
# B1: Membrane-associated guanylate kinase, WW and PDZ domain-containing protein 3, residues 287 to 329; numbered along this chain, Q5TCQ9 (parent)
# chain: MRDETLEPLPKNWEMAYTDTGMIYFIDHNTKTTTWLDPRLCKK
# B2: Heterogeneous nuclear ribonucleoprotein U-like protein 2, residues 1 to 40; numbered along this chain, Q1KMD3 (parent)
# chain: MEVKRLKVTELRSELQRRGLDSRGLKVDLAQRLQEALDAE
# Variants of: B1
# Assay: abundance fitness (aPCA) (normalised: wild type 0, dead -1); higher = more abundant; growth selection in yeast, the domain comes from the species named
# Conditions: Homo sapiens
row,Variant,abundance fitness
1,D3C,-0.164 ± 0.093
2,D3M,-0.188 ± 0.035
3,D3P,-0.072 ± 0.053
4,D3T,-0.12 ± 0.042
5,D3A,-0.089 ± 0.034
6,D3L,-0.175 ± 0.043
7,D3Q,-0.074 ± 0.044
8,D3R,-0.127 ± 0.032
9,D3E,-0.039 ± 0.036
10,D3G,-0.065 ± 0.036
11,D3K,-0.046 ± 0.051
12,D3W,-0.336 ± 0.039
13,D3Y,-0.367 ± 0.12
14,D3I,-0.213 ± 0.1
15,D3S,-0.067 ± 0.036
16,D3F,-0.161 ± 0.065
17,D3N,-0.148 ± 0.067
18,M1N,-0.213 ± 0.13
19,M1V,-0.089 ± 0.038
20,M1Q,-0.253 ± 0.12
21,M1G,-0.057 ± 0.032
22,M1T,-0.06 ± 0.039

row,Variant,abundance fitness
1,M1E,0.001 ± 0.038
2,M1L,-0.074 ± 0.042
3,M1I,-0.152 ± 0.27
4,M1D,-0.026 ± 0.061
5,M1Y,-0.1 ± 0.11
6,M1R,-0.056 ± 0.035
7,M1S,-0.064 ± 0.096
8,M1K,0.025 ± 0.047
9,R2I,-0.122 ± 0.055
10,R2W,-0.226 ± 0.038
11,R2V,-0.091 ± 0.033
12,R2N,-0.021 ± 0.046
13,R2S,-0.164 ± 0.044
14,R2K,-0.045 ± 0.073
15,R2M,-0.015 ± 0.077
16,R2E,-0.05 ± 0.038
17,R2G,-0.054 ± 0.043
18,R2C,-0.046 ± 0.048
19,R2T,-0.002 ± 0.033
20,R2L,-0.072 ± 0.054
21,R2F,-0.171 ± 0.049
22,R2A,-0.088 ± 0.039

# Variants of: B2
# Assay: as above
# Conditions: Homo sapiens
row,Variant,abundance fitness
1,L33W,-0.626 ± 0.068
2,L33K,-0.164 ± 0.092
3,L33N,-0.384 ± 0.097
4,L33R,-0.368 ± 0.048
5,L33G,-0.189 ± 0.048
6,L6R,-0.572 ± 0.052
7,L6W,-0.281 ± 0.056
8,L6F,-0.063 ± 0.15
9,L6Q,-0.198 ± 0.075
10,L6V,-0.425 ± 0.06
11,T9Q,0.022 ± 0.068
12,T9I,0.102 ± 0.15
13,T9P,-0.132 ± 0.066
14,T9L,-0.27 ± 0.067
15,T9E,0.113 ± 0.053
16,T9G,-0.017 ± 0.05
17,T9V,-0.153 ± 0.056
18,T9S,-0.083 ± 0.054
19,T9A,-0.04 ± 0.053
20,A30S,-0.165 ± 0.069
21,A30C,-0.006 ± 0.071
22,A30D,-0.217 ± 0.083
23,A30P,-0.718 ± 0.15
24,A30V,0.011 ± 0.059
25,A30T,-0.058 ± 0.077

row,Variant,abundance fitness
1,A30N,-0.422 ± 0.4
2,L20H,-0.572 ± 0.13
3,L20R,-0.558 ± 0.05
4,L20F,-0.353 ± 0.089
5,L20E,-0.383 ± 0.057
6,L20G,-0.51 ± 0.052
7,L20P,-0.65 ± 0.07
8,L20T,-0.563 ± 0.067
9,L20Q,-0.364 ± 0.082
10,L20W,-0.624 ± 0.071
11,L20D,-0.304 ± 0.067
12,K4Q,-0.028 ± 0.073
13,K4D,-0.082 ± 0.073
14,K4E,0.09 ± 0.062
15,K4M,0.091 ± 0.11
16,K4C,-0.181 ± 0.067
17,K4G,-0.126 ± 0.047
18,K4Y,-0.112 ± 0.095
19,K4H,0.335 ± 0.46
20,K4F,-0.182 ± 0.17
21,K4T,0.019 ± 0.088
22,K4R,-0.152 ± 0.051
23,R5D,0.181 ± 0.19
24,R5G,-0.021 ± 0.048
25,R5P,-0.435 ± 0.074

row,Variant,abundance fitness
1,R5V,-0.35 ± 0.059
2,R5L,-0.031 ± 0.059
3,D38F,-0.33 ± 0.079
4,D38W,-0.36 ± 0.059
5,D38L,-0.284 ± 0.061
6,D38I,-0.629 ± 0.43
7,D38T,-0.027 ± 0.063
8,D38G,-0.281 ± 0.054
9,D38K,-0.185 ± 0.072
10,D38H,-0.531 ± 0.16
11,E10L,-0.641 ± 0.057
12,E10K,-1.08 ± 0.13
13,E10P,-0.758 ± 0.088
14,E10S,-0.512 ± 0.066
15,E10A,-0.336 ± 0.056
16,V8M,-0.04 ± 0.065
17,V8P,-0.298 ± 0.069
18,V8G,-0.354 ± 0.05
19,V8T,0.033 ± 0.074
20,V8Q,-0.169 ± 0.062
21,V8A,-0.077 ± 0.062
22,V3G,-0.325 ± 0.048
23,V3T,-0.114 ± 0.073
24,V3W,-0.432 ± 0.053
25,V3A,-0.107 ± 0.055

row,Variant,abundance fitness
1,V3R,-0.567 ± 0.05
2,V3H,-0.603 ± 0.19
3,V3E,-0.279 ± 0.07
4,V3I,0.048 ± 0.13
5,M1A,-0.461 ± 0.067
6,M1V,-0.277 ± 0.053
7,M1E,-0.08 ± 0.078
8,M1D,-1.65 ± 0.32
9,M1W,-0.354 ± 0.091
10,M1L,-0.339 ± 0.097
11,M1C,-0.414 ± 0.19
12,M1R,-0.236 ± 0.061
13,Q31A,0.032 ± 0.058
14,Q31H,-0.418 ± 0.13
15,Q31F,-0.197 ± 0.079
16,Q31V,-0.003 ± 0.055
17,Q31K,0.112 ± 0.067
18,Q31G,-0.055 ± 0.049
19,Q31E,0.141 ± 0.078
20,Q31L,0.009 ± 0.054
21,Q31N,0.252 ± 0.13
22,A39Y,-0.367 ± 0.098
23,A39G,-0.036 ± 0.049
24,A39N,0.153 ± 0.2
25,A39K,-0.046 ± 0.079

row,Variant,abundance fitness
1,A39V,-0.132 ± 0.059
2,A39T,-0.088 ± 0.061
3,V27E,0.038 ± 0.058
4,V27Q,-0.246 ± 0.17
5,V27I,-0.047 ± 0.071
6,V27Y,-0.413 ± 0.14
7,V27H,-0.009 ± 0.12
8,V27R,0.049 ± 0.051
9,V27L,-0.087 ± 0.065
10,V27P,0.142 ± 0.11
11,E40W,-1.14 ± 0.087
12,E40T,-0.405 ± 0.22
13,E40S,-0.311 ± 0.063
14,E40C,-0.017 ± 0.41
15,E40P,-0.543 ± 0.28
16,E40Y,-0.518 ± 0.22
17,E40I,-0.641 ± 0.1
18,E40H,-0.545 ± 0.11
19,E40D,-0.122 ± 0.12
20,L29A,-0.212 ± 0.05
21,L29Q,-0.285 ± 0.07
22,L29K,-0.31 ± 0.09
23,L29F,-0.603 ± 0.16
